Data set [1] relates to ICAM-1 expressing tumor cell lines. Nature of the data set: Complement-dependent cytotoxicity (CDC) in tumor cell lines. Format: cell-based. The settings on record: panel of ICAM-1 expressing tumor cell lines. The method, then: Target cells were harvested and incubated in RPMI medium with antibodies at 5 μg/mL or at titrated concentrations between 0.01-100 μg/mL for 60 min on ice. Cells were thereafter washed and resuspended in cold medium before dispension into flow cytometry tubes. Treatments were performed in triplicates. Human serum, normal or heat-inactivated, (Sigma, Sweden) was added to tubes and the samples were incubated for 2 h at 37° C. After completed incubation ToPo-Pro-3 was added at a final concentration of 0.3 μM and cells were analyzed for membrane permeabilization using flow cytometry.

For a further data set, the system named is peripheral blood B cells. Nature of the data set: PCD in normal peripheral blood B cells. The data set is classed as cell-based. The following applies: resting or activated peripheral blood B cells. The method, then:
Target cells were seeded in 96-well culture plates at a density of 2×10^6 cells/mL culture medium. Titrated concentrations of IgG1 B11 or different negative and positive control antibodies were added to the cells, in the absence or presence of anti-human Fab fragment (Jackson ImmunoResearch) for cross-linking. The cells were then incubated for 16 hours at 37° C. in a humidified atmosphere of 5% CO2. The cells were harvested and stained for Annexin V-488/Propidium Iodide (Invitrogen, Sweden) and analysed using flow cytometer (FACS Calibur, BD Bioscience).

B1: IgG B11: novel human ICAM-1 antibody targeting the B11 epitope, isolated from the naïve antibody library n-CoDeR (antibody, V domains shown)
VH: EVQLLESGGGLVQPGGSLRLSCAASGFTFSNAWMSWVRQAPGKGLEWVAFIWYDGSNKYYADSVKGRFTISRDNSKNTLYLQMNSLRAEDTAVYYCARYSGWYFDYWGQGTLVTVSS
VL: QSVLTQPPSASGTPGQRVTISCTGSSSNIGAGYDVHWYQQLPGTAPKLLIYDNNNRPSGVPDRFSGSKSGTSASLAISGLRSEDEADYYCQSYDSSLSAWLFGGGTKLTVLG
modifications: B11 antibody variable H region; B11 antibody variable L region
For B1, the “induction of CDC” value in data set [1] was “did not induce CDC”. Besides, the “programmed cell death of normal B cells” value in the data set with peripheral blood B cells was “did not, however, induce PCD”; in the data set with peripheral blood B cells (listed as B11), “not significantly affected”.

The values are drawn from patent US20150352207A1, “USE OF ANTIBODIES AGAINST ICAM-1 IN COMBINATION WITH AN ANTI CANCER DRUG IN THE TREATMENT OF PATIENTS” (BIOINVENT INTERNATIONAL AB, priority 2013, published 2015).
